Source: article PMC4216079, “Phenotypic and Enzymatic Comparative Analysis of the KPC Variants, KPC-2 and Its Recently Discovered Variant KPC-15” (PLoS ONE, 2014)

Tests used:
KPC-2 = KPC-2 (Klebsiella pneumoniae, UniProt Q9F663); assay: steady-state hydrolysis, diode array spectrophotometer; conditions: 10 mM PBS, pH 7.4, 25°C; 10 nM enzyme
[1] = system: C[C@@H](O)[C@H]1C(=O)N2C(C(=O)O)=C(S[C@@H]3CN[C@H](C(=O)N(C)C)C3)[C@H](C)[C@H]12; assay: purified protein; conditions: 10 mM PBS, pH 7.4, 25°C, 10 nM enzyme
[2] = system: Cc1nnc(SCC2=C(C(=O)O)N3C(=O)[C@@H](NC(=O)Cn4cnnn4)[C@H]3SC2)s1; assay: purified protein; conditions: 10 mM PBS, pH 7.4, 25°C, 10 nM enzyme
[3] = system: CO/N=C(\C(=O)N[C@@H]1C(=O)N2C(C(=O)O)=C(COC(C)=O)CS[C@H]12)c1csc(N)n1; assay: purified protein; conditions: 10 mM PBS, pH 7.4, 25°C, 10 nM enzyme
[4] = system: CC(C)(O/N=C(\C(=O)N[C@@H]1C(=O)N2C(C(=O)[O-])=C(C[n+]3ccccc3)CS[C@H]12)c1csc(N)n1)C(=O)O; assay: purified protein; conditions: 10 mM PBS, pH 7.4, 25°C, 10 nM enzyme
[5] = system: C[C@@H](O)[C@H]1C(=O)N2C(C(=O)O)=C(SCCN=CN)C[C@H]12; assay: purified protein; conditions: 10 mM PBS, pH 7.4, 25°C, 10 nM enzyme

Compound | Km (KPC-2) [µM] | Km [1] [µM] | kcat [1] [s⁻¹] | kcat/Km [1] [M⁻¹ s⁻¹] | Km [2] [µM] | kcat [2] [s⁻¹] | kcat/Km [2] [M⁻¹ s⁻¹] | Km [3] [µM] | kcat [3] [s⁻¹] | Km [4] [µM] | kcat [4] [s⁻¹] | kcat/Km [4] [M⁻¹ s⁻¹] | Km [5] [µM] | kcat [5] [s⁻¹] | kcat/Km [5] [M⁻¹ s⁻¹]
O=C(Cc1cccs1)N[C@@H]1C(=O)N2C(C(=O)O)=C(/C=C/c3ccc([N+](=O)[O-])cc3[N+](=O)[O-])CS[C@H]12 [nitrocefin] | 6.5 ± 2.4 | – | – | – | – | – | – | – | – | – | – | – | – | – | –
KPC-2 (Klebsiella pneumoniae) | – | 16.2 ± 3.1 | 4.1 ± 0.99 | 250000 ± 61000 | 16 ± 1 | 44 ± 2 | 2.8e+06 ± 1e+06 | 124 ± 6 | 52 ± 6 | 217 ± 6 | 0.59 ± 0.83 | 2700 ± 560 | 21 ± 2 | 20 ± 1 | 950000 ± 650000
